Results from patent US20170267986A1, “GENERATION OF MANNOSE-6-PHOSPHATE CONTAINING RECOMBINANT ALPHA-N-ACETYL GLUCOSAMINIDASE” (SHIRE HUMAN GENETIC THERAPIES, INC., priority 2014, published 2017).

T1: rhNaglu (Homo sapiens, UniProt P54802)
T1 construct: The N-terminal 23 amino acids are cleaved as the precursor protein enters the endoplasmic reticulum, resulting in a mature form; made in house; host or cells: human fibrosarcoma HT1080 cell clone over-expressing rhNaglu
T1 sequence (P54802 24-743): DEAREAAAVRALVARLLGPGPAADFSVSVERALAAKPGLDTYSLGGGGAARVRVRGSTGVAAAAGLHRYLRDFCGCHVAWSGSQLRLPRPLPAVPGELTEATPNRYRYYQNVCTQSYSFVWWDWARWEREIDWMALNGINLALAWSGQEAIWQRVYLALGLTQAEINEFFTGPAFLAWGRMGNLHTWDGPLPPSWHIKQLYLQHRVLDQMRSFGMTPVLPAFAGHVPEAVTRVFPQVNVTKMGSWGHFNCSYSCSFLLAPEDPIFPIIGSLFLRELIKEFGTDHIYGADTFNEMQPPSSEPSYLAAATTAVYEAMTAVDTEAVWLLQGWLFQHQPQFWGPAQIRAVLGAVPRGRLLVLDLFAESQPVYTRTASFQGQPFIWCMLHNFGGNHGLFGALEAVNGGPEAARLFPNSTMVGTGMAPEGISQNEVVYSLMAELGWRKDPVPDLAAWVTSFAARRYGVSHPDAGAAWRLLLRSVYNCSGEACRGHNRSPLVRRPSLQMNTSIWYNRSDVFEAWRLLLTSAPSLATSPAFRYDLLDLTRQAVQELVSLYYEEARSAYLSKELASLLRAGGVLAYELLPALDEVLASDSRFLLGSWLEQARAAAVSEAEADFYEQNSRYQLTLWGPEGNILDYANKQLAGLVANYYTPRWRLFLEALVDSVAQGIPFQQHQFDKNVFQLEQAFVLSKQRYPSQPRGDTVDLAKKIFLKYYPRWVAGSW


Experiments:
rhNaglu = target: T1, rhNaglu; test: Naglu activity assay with various inhibitors (4MU-GlcNAc fluorescent substrate); type: biochemical; conditions: added at 0.0625, 0.25, 1, 4 and 8 mM; 37° C., 1 hour, pH 4.5
Experimental: A 10 mM stock of Naglu activity substrate solution was prepared by dissolving 5 mg of substrate, i.e., 4-methylumbelliferyl-N-acetyl-α-D-glucosaminide, in 250 μl of 100% DMSO. Naglu activity assay reaction buffer (0.1 M sodium acetate, 0.5 mg/ml BSA, pH 4.5) was then added to bring the volume up to 1318 μl. This 10 mM substrate stock solution was then diluted 10 fold with reaction buffer to make the final 1 mM substrate solution.
Samples and controls were pre-diluted in reaction buffer. 10 μl of each pre-diluted sample/control were applied in duplicate wells on a black clear bottom 96 well plate. 75 μl of 1 mM substrate solution containing various concentrations of inhibitors were added to each well. The plates were sealed with plate sealer and wrapped with aluminum foil. The plates were then placed in a Boekel Jitterbug Microplate Incubator Shaker (Cole-Parmer, Vernon Hills, Ill.) and shaken (setting at #1) at 37° C. for 1 hour. 200 μl of Stop Buffer (0.2 M Glycine, pH 10.7) were then added to all of the wells and fluorescence emission (excitation/emission at 360 nm/460 nm, respectively) was measured using a SpectraMax® Plus M2 plate reader from Molecular Devices (Sunnyvale, Calif.).
To further confirm that rhNaglu could hydrolyze UDP-GlcNAc, we investigated whether UDP-GlcNAc inhibited the hydrolysis by rhNaglu of the fluorescent substrate 4MU-GlcNAc (4-methylumbelliferyl-N-acetyl-α-D-glucosaminide) in a Naglu activity assay. Briefly, UDP-GlcNAc, as well as GlcNAc, UDP-GalNAc and Glucosamine, were added to the Naglu activity assay at 0.0625, 0.25, 1, 4 and 8 mM concentrations. The fluorescence emitted from these samples was compared to control samples only including rhNaglu and 4MU-GlcNAc.

[1] = target: Soluble cation-independent mannose-6-phosphate receptor (sCI-M6PR); test: plate-based sCI-M6PR binding ELISA (sCI-M6PR coated, HRP anti-Naglu polyclonal #2957 detection); KD extrapolated from binding curves
CI-M6PR = target: T2, CI-M6PR (Homo sapiens, UniProt P11717); test: Plate based sCI-M6PR binding assay (ELISA)
T2 construct: the secreted sCI-M6PR was purified from the tissue culture medium; made in house
Experimental: (1) Generation of sCI-M6PR (soluble CI-M6PR)—Full length M6PR was expressed in genetically modified tissue culture cells, and the secreted sCI-M6PR was purified from the tissue culture medium using an aminophenyl-M6P conjugated resin (Beljaars et al., 1999). N-terminal sequencing and LC/MS/MS analysis of the obtained protein confirmed the amino acid sequence of the sCI-M6PR, and MALDI analysis confirmed that its molecular mass was 279,492 Da.
100 μl of sCI-M6PR(2.5 μg/ml) in DPBS were coated on MaxiSorp® Nunc-Immuno flat-bottom 96-well plates (Thermo Fisher Scientific, Inc., Sunnyvale, Calif.). After incubation for 1 hour at 37° C., the plates was washed with ELISA wash buffer (0.1% Tween-20 in DPBS). sCI-M6PR coated wells were blocked with 300 μl ELISA blocking buffer (DPBS, 2% BSA, 0.05% Tween 20) at 37° C. for 1 hour. Appropriate dilutions of sGNPT-modified Naglu-Kif (and rhNaglu as control) were made in blocking buffer and added to the wells. After 1 hour incubation at 37° C., the plates were washed with ELISA wash buffer, and 100 μl of HRP-conjugated rabbit anti-Naglu polyclonal antibody #2957 diluted in blocking buffer were added. After 1 hour incubation at 37° C., the plates was washed again with ELISA wash buffer. The ELISA was developed using TMB peroxidase substrate solution (KPL, Inc., Gaithersburg, Mass.) by following the manufacturer's protocol.
sGNPT transfers the phospho-GlcNAc group from UDP-GlcNAc to mannose sugar, and the resulting mannose-6-phosphate-GlcNAc is called the Capped-M6P. During the normal intracellular glycosylation process, the decapping enzyme (N-acetylglucosamine 1-phosphodiester α-N-acetyglucosaminidase) removes the GlcNAc from the Capped-M6P, to generate M6P. But without decapping, the Capped-M6P can also bind to CI-M6PR. Capped-M6P binds to domain 5 of CI-M6PR rather than to domain 3 or 9, as M6P does (Bohnsack et al. 2009). The amount of Capped-M6P on Naglu-Kif can be indirectly evaluated using a CI-M6PR plate binding assay. In this binding assay the affinity with which Naglu-Kif bound to CI-M6PR increased in proportion to the amount of sGNPT used (35 μg, 70 μg and 140 (corresponding to about 4.2 μM) (green, red and empty circle in FIG. 8, respectively)) to modify Naglu-Kif and thus the extent of Capped-M6P found on Naglu-Kif (FIG. 8). […] These binding reactions were repeated in two different buffer systems, i.e., in a sodium acetate buffer (40 mM NaAc pH 6.5, 10 mM MnCl2, 10 mM MgCl2) and in a Tris buffer (50 mM Tris pH 7.4, 10 mM MnCl2, 10 mM MgCl2), which gave similar results. Contrary to Naglu-Kif, rhNaglu was not phosphorylated by sGNPT under the same conditions due to the lack of high-mannose glycans.

Row | inhibition of rhNaglu activity toward 4MU-GlcNAc (rhNaglu) | Kd [1] [nM] | Molecule | also measured
1 | Inhibition |  | CC(=O)N[C@H]1C(O)O[C@H](CO)[C@@H](O)[C@@H]1O (stereo partly drawn) [GlcNAc, N-acetylglucosamine] | 
2 | not inhibited |  | N[C@H]1C(O)O[C@H](CO)[C@@H](O)[C@@H]1O (stereo partly drawn) [glucosamine] | 
3 |  | 15.3 | Naglu-Kif (high-mannose-containing recombinant human Naglu) modified in vitro with 35 µg sGNPT (from UniProt P54802 24-743) (enzyme) | 
4 |  | 5.92 | Naglu-Kif (high-mannose-containing recombinant human Naglu) modified in vitro with 70 µg sGNPT (from UniProt P54802 24-743) (enzyme) | 
5 |  | 1.48 | Naglu-Kif (high-mannose-containing recombinant human Naglu) modified in vitro with 140 µg sGNPT (from UniProt P54802 24-743) (enzyme) | 
6 |  |  | Naglu-Kif: high-mannose-containing recombinant human Naglu purified from HT1080 cells grown with 2 mg/l Kifunensine; tested after sGNPT modification (protein) DEAREAAAVRALVARLLGPGPAADFSVSVERALAAKPGLDTYSLGGGGAARVRVRGSTGVAAAAGLHRYLRDFCGCHVAWSGSQLRLPRPLPAVPGELTEATPNRYRYYQNVCTQSYSFVWWDWARWEREIDWMALNGINLALAWSGQEAIWQRVYLALGLTQAEINEFFTGPAFLAWGRMGNLHTWDGPLPPSWHIKQLYLQHRVLDQMRSFGMTPVLPAFAGHVPEAVTRVFPQVNVTKMGSWGHFNCSYSCSFLLAPEDPIFPIIGSLFLRELIKEFGTDHIYGADTFNEMQPPSSEPSYLAAATTAVYEAMTAVDTEAVWLLQGWLFQHQPQFWGPAQIRAVLGAVPRGRLLVLDLFAESQPVYTRTASFQGQPFIWCMLHNFGGNHGLFGALEAVNGGPEAARLFPNSTMVGTGMAPEGISQNEVVYSLMAELGWRKDPVPDLAAWVTSFAARRYGVSHPDAGAAWRLLLRSVYNCSGEACRGHNRSPLVRRPSLQMNTSIWYNRSDVFEAWRLLLTSAPSLATSPAFRYDLLDLTRQAVQELVSLYYEEARSAYLSKELASLLRAGGVLAYELLPALDEVLASDSRFLLGSWLEQARAAAVSEAEADFYEQNSRYQLTLWGPEGNILDYANKQLAGLVANYYTPRWRLFLEALVDSVAQGIPFQQHQFDKNVFQLEQAFVLSKQRYPSQPRGDTVDLAKKIFLKYYPRWVAGSW | Kd (CI-M6PR; Naglu-Kif modified with 35 μg sGNPT): 15.3 nM; Kd (CI-M6PR; Naglu-Kif modified with 70 μg sGNPT): 5.92 nM; Kd (CI-M6PR; Naglu-Kif modified with 140 sGNPT (about 4.2 μM)): 1.48 nM

Row | Molecule | inhibition of rhNaglu activity toward 4MU-GlcNAc (rhNaglu) | Kd [1] [nM] | also measured
7 | uridine diphosphate N-acetyl galactosamine [UDP-GalNAc] | not inhibited |  | 
